According to FireProtDB (doi:10.1093/protein/12.8.663):
Where “and” joins values, the source holds several entries; their conditions need not be identical. Equal values may be shown once.

B1: Lysozyme C, P61626 (parent)
chain: MKALIVLGLVLLSVTVQGKVFERCELARTLKRLGMDGYRGISLANWMCLAKWESGYNTRATNYNAGDRSTDYGIFQINSRYWCNDGKTPGAVNACHLSCSALLQDNIADAVACAKRVVRDPQGIRAWVAWRNRCQNRDVRQYVQGCGV

Variants of: B1
Conditions: Homo sapiens; pH 2.59; Thermal; DSC; glycine 0.05 M; reversible: yes; structure 1LZ1; whole UniProt chain shown
With Q76G the Tm was 68.3 °C, the “unfolding enthalpy (calorimetric)” value was 113 kcal/mol and the “unfolding enthalpy (van 't Hoff)” value was 121 kcal/mol.

Same assay, conditions: Homo sapiens; pH 2.7; 64.9 °C; Thermal; DSC; glycine 0.05 M; reversible: yes; structure 1LZ1; whole UniProt chain shown
In the case of Q76G, the “ddG of mutation (higher = less stable)” value is reported as -1.86 kcal/mol. In the case of H96G, the “ddG of mutation (higher = less stable)” value is reported as 0.12 kcal/mol. In the case of A50L, the “ddG of mutation (higher = less stable)” value is reported as 0.1 kcal/mol. For A114M, the “ddG of mutation (higher = less stable)” value was -0.02 kcal/mol. In the case of E53L, the “ddG of mutation (higher = less stable)” value is reported as 0.53 kcal/mol. For V92S, the “ddG of mutation (higher = less stable)” value was 0.38 kcal/mol. In the case of R68G, the “ddG of mutation (higher = less stable)” value is reported as -0.26 kcal/mol. For V118F, the “ddG of mutation (higher = less stable)” value was 1.65 kcal/mol. For G55Q, the “ddG of mutation (higher = less stable)” value was 0.26 kcal/mol.

Same assay, conditions: Homo sapiens; pH 2.7; Thermal; DSC; glycine 0.05 M; reversible: yes; structure 1LZ1; whole UniProt chain shown
For Q76G, the “change of melting temperature, mutant - wild type (higher = more stable)” value (“change of melting temperature, mutant” for short) was 5.7 °C, the “heat capacity change of unfolding” value was 1.34 kcal/mol/K and the “unfolding enthalpy (calorimetric)” value was 109 kcal/mol. In the case of H96G, the Tm is reported as 64.4 °C and 64.9 °C, the “change of melting temperature, mutant” value is reported as -0.5 °C and the “heat capacity change of unfolding” value is reported as 1.58 kcal/mol/K. For the same variant, the “unfolding enthalpy (calorimetric)” value was 109 kcal/mol. For A50L, the Tm was 64.6 °C and 64.9 °C, the “change of melting temperature, mutant” value was -0.3 °C and the “heat capacity change of unfolding” value was 1.27 kcal/mol/K. The “unfolding enthalpy (calorimetric)” value was 98.2 kcal/mol. With A114M the Tm was 65 °C and 64.9 °C, the “change of melting temperature, mutant” value was 0.1 °C and the “heat capacity change of unfolding” value was 1.31 kcal/mol/K. The “unfolding enthalpy (calorimetric)” value was 98.7 kcal/mol. In the case of E53L, the Tm is reported as 63.1 °C and 64.9 °C, the “change of melting temperature, mutant” value is reported as -1.8 °C and the “heat capacity change of unfolding” value is reported as 1.05 kcal/mol/K. The “unfolding enthalpy (calorimetric)” value was 99 kcal/mol. For V92S, the Tm was 63.7 °C and 64.9 °C, the “change of melting temperature, mutant” value was -1.2 °C and the “heat capacity change of unfolding” value was 1.22 kcal/mol/K. For the same variant, the “unfolding enthalpy (calorimetric)” value was 108 kcal/mol. For N45L, the Tm was 65.3 °C and the “change of melting temperature, mutant” value was 0.4 °C. For R68G, the Tm was 65.8 °C and 64.9 °C, the “change of melting temperature, mutant” value was 0.9 °C and the “heat capacity change of unfolding” value was 1.46 kcal/mol/K. The “unfolding enthalpy (calorimetric)” value was 100 kcal/mol. With V118F the “change of melting temperature, mutant” value was -6.5 °C, the “heat capacity change of unfolding” value was 0.93 kcal/mol/K and the “unfolding enthalpy (calorimetric)” value was 87.2 kcal/mol. With G55Q the Tm was 64.1 °C and 64.9 °C, the “change of melting temperature, mutant” value was -0.8 °C and the “heat capacity change of unfolding” value was 1.15 kcal/mol/K. The “unfolding enthalpy (calorimetric)” value was 108 kcal/mol.

Same assay, conditions: Homo sapiens; pH 2.78; Thermal; DSC; glycine 0.05 M; reversible: yes; structure 1LZ1; whole UniProt chain shown
In the case of Q76G, the Tm is reported as 72.5 °C, the “unfolding enthalpy (calorimetric)” value is reported as 119 kcal/mol and the “unfolding enthalpy (van 't Hoff)” value is reported as 127 kcal/mol. With R68G the Tm was 67.3 °C, the “unfolding enthalpy (calorimetric)” value was 102 kcal/mol and the “unfolding enthalpy (van 't Hoff)” value was 114 kcal/mol.

Same assay, conditions: Homo sapiens; pH 3.15; Thermal; DSC; glycine 0.05 M; reversible: yes; structure 1LZ1; whole UniProt chain shown
For Q76G, the Tm was 78.7 °C, the “unfolding enthalpy (calorimetric)” value was 127 kcal/mol and the “unfolding enthalpy (van 't Hoff)” value was 135 kcal/mol.

Same assay, conditions: Homo sapiens; pH 2.53; Thermal; DSC; glycine 0.05 M; reversible: yes; structure 1LZ1; whole UniProt chain shown
In the case of H96G, the Tm is reported as 61.5 °C, the “unfolding enthalpy (calorimetric)” value is reported as 103 kcal/mol and the “unfolding enthalpy (van 't Hoff)” value is reported as 108 kcal/mol.

Same assay, conditions: Homo sapiens; pH 2.75; Thermal; DSC; glycine 0.05 M; reversible: yes; structure 1LZ1; whole UniProt chain shown
In the case of H96G, the Tm is reported as 65.2 °C, the “unfolding enthalpy (calorimetric)” value is reported as 110 kcal/mol and the “unfolding enthalpy (van 't Hoff)” value is reported as 112 kcal/mol.

Same assay, conditions: Homo sapiens; pH 3.1; Thermal; DSC; glycine 0.05 M; reversible: yes; structure 1LZ1; whole UniProt chain shown
For H96G, the Tm was 71 °C, the “unfolding enthalpy (calorimetric)” value was 118 kcal/mol and the “unfolding enthalpy (van 't Hoff)” value was 120 kcal/mol.

Same assay, conditions: Homo sapiens; pH 2.61; Thermal; DSC; glycine 0.05 M; reversible: yes; structure 1LZ1; whole UniProt chain shown
In the case of A50L, the Tm is reported as 63.1 °C, the “unfolding enthalpy (calorimetric)” value is reported as 94.9 kcal/mol and the “unfolding enthalpy (van 't Hoff)” value is reported as 97.8 kcal/mol. In the case of V92S, the Tm is reported as 62.1 °C, the “unfolding enthalpy (calorimetric)” value is reported as 105 kcal/mol and the “unfolding enthalpy (van 't Hoff)” value is reported as 110 kcal/mol.

Same assay, conditions: Homo sapiens; pH 2.83; Thermal; DSC; glycine 0.05 M; reversible: yes; structure 1LZ1; whole UniProt chain shown
In the case of A50L, the Tm is reported as 66.9 °C, the “unfolding enthalpy (calorimetric)” value is reported as 102 kcal/mol and the “unfolding enthalpy (van 't Hoff)” value is reported as 104 kcal/mol. With V92S the Tm was 66 °C, the “unfolding enthalpy (calorimetric)” value was 109 kcal/mol and the “unfolding enthalpy (van 't Hoff)” value was 115 kcal/mol. For V118F, the Tm was 61 °C, the “unfolding enthalpy (calorimetric)” value was 84.6 kcal/mol and the “unfolding enthalpy (van 't Hoff)” value was 92 kcal/mol.

Same assay, conditions: Homo sapiens; pH 3.23; Thermal; DSC; glycine 0.05 M; reversible: yes; structure 1LZ1; whole UniProt chain shown
In the case of A50L, the Tm is reported as 73.2 °C, the “unfolding enthalpy (calorimetric)” value is reported as 108 kcal/mol and the “unfolding enthalpy (van 't Hoff)” value is reported as 111 kcal/mol.

Same assay, conditions: Homo sapiens; pH 2.56; Thermal; DSC; glycine 0.05 M; reversible: yes; structure 1LZ1; whole UniProt chain shown
With A114M the Tm was 62.5 °C, the “unfolding enthalpy (calorimetric)” value was 95.1 kcal/mol and the “unfolding enthalpy (van 't Hoff)” value was 98 kcal/mol. With E53L the Tm was 61.2 °C, the “unfolding enthalpy (calorimetric)” value was 94.9 kcal/mol and the “unfolding enthalpy (van 't Hoff)” value was 105 kcal/mol.

Same assay, conditions: Homo sapiens; pH 3.19; Thermal; DSC; glycine 0.05 M; reversible: yes; structure 1LZ1; whole UniProt chain shown
In the case of A114M, the Tm is reported as 72.9 °C, the “unfolding enthalpy (calorimetric)” value is reported as 109 kcal/mol and the “unfolding enthalpy (van 't Hoff)” value is reported as 112 kcal/mol.

Same assay, conditions: Homo sapiens; pH 3.25; Thermal; DSC; glycine 0.05 M; reversible: yes; structure 1LZ1; whole UniProt chain shown
In the case of E53L, the Tm is reported as 70.8 °C, the “unfolding enthalpy (calorimetric)” value is reported as 105 kcal/mol and the “unfolding enthalpy (van 't Hoff)” value is reported as 110 kcal/mol.

Same assay, conditions: Homo sapiens; pH 3.28; Thermal; DSC; glycine 0.05 M; reversible: yes; structure 1LZ1; whole UniProt chain shown
With V92S the Tm was 72.2 °C, the “unfolding enthalpy (calorimetric)” value was 117 kcal/mol and the “unfolding enthalpy (van 't Hoff)” value was 122 kcal/mol.

Same assay, conditions: Homo sapiens; pH 2.58; Thermal; DSC; glycine 0.05 M; reversible: yes; structure 1LZ1; whole UniProt chain shown
In the case of R68G, the Tm is reported as 63.7 °C, the “unfolding enthalpy (calorimetric)” value is reported as 99.9 kcal/mol and the “unfolding enthalpy (van 't Hoff)” value is reported as 111 kcal/mol.

Same assay, conditions: Homo sapiens; pH 3.11; Thermal; DSC; glycine 0.05 M; reversible: yes; structure 1LZ1; whole UniProt chain shown
In the case of R68G, the Tm is reported as 73 °C, the “unfolding enthalpy (calorimetric)” value is reported as 113 kcal/mol and the “unfolding enthalpy (van 't Hoff)” value is reported as 123 kcal/mol.

Same assay, conditions: Homo sapiens; pH 2.62; Thermal; DSC; glycine 0.05 M; reversible: yes; structure 1LZ1; whole UniProt chain shown
In the case of V118F, the Tm is reported as 56.8 °C, the “unfolding enthalpy (calorimetric)” value is reported as 79.1 kcal/mol and the “unfolding enthalpy (van 't Hoff)” value is reported as 85.1 kcal/mol.

Same assay, conditions: Homo sapiens; pH 3.26; Thermal; DSC; glycine 0.05 M; reversible: yes; structure 1LZ1; whole UniProt chain shown
With V118F the Tm was 67.6 °C, the “unfolding enthalpy (calorimetric)” value was 89.4 kcal/mol and the “unfolding enthalpy (van 't Hoff)” value was 95.4 kcal/mol.

Same assay, conditions: Homo sapiens; pH 2.48; Thermal; DSC; glycine 0.05 M; reversible: yes; structure 1LZ1; whole UniProt chain shown
With G55Q the Tm was 60.7 °C, the “unfolding enthalpy (calorimetric)” value was 102 kcal/mol and the “unfolding enthalpy (van 't Hoff)” value was 108 kcal/mol.

Same assay, conditions: Homo sapiens; pH 2.73; Thermal; DSC; glycine 0.05 M; reversible: yes; structure 1LZ1; whole UniProt chain shown
With G55Q the Tm was 64.5 °C, the “unfolding enthalpy (calorimetric)” value was 108 kcal/mol and the “unfolding enthalpy (van 't Hoff)” value was 111 kcal/mol.

Same assay, conditions: Homo sapiens; pH 3.09; Thermal; DSC; glycine 0.05 M; reversible: yes; structure 1LZ1; whole UniProt chain shown
With G55Q the Tm was 70.1 °C, the “unfolding enthalpy (calorimetric)” value was 113 kcal/mol and the “unfolding enthalpy (van 't Hoff)” value was 118 kcal/mol.
